Measured values reported in IntAct's records for PubMed 36931259.

B1: 14-3-3 protein sigma (Homo sapiens), P31947 (parent)
chain: MERASLIQKAKLAEQAERYEDMAAFMKGAVEKGEELSCEERNLLSVAYKNVVGGQRAAWRVLSSIEQKSNEEGSEEKGPEVREYREKVETELQGVCDTVLGLLDSHLIKEAGDAESRVFYLKMKGDYYRYLAEVATGDDKKRIIDSARSAYQEAMDISKKEMPPTNPIRLGLALNFSVFHYEIANSPEEAISLAKTTFDEAMADLHTLSEDSYKDSTLIMQLLRDNLTLWTADNAGEEGGEAPQEPQS
partner: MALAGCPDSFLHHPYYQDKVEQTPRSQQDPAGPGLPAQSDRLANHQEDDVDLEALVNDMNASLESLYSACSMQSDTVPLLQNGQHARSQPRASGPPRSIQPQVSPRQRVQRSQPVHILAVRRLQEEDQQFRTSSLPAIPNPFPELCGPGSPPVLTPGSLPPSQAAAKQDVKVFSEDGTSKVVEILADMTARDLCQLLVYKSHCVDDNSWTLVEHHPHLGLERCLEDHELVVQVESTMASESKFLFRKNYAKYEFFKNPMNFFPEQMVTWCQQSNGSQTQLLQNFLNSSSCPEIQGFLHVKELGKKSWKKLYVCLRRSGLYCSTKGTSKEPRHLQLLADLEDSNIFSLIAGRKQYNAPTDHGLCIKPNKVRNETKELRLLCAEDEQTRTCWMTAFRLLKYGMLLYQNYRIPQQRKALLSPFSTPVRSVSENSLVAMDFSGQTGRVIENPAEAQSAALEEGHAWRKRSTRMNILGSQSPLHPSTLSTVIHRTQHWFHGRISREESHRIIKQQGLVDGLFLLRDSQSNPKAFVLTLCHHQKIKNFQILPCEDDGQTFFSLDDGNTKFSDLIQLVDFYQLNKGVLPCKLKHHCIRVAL
B2: Serine/threonine-protein kinase PAK 5 (Homo sapiens), Q9P286 (parent)
chain: MFGKKKKKIEISGPSNFEHRVHTGFDPQEQKFTGLPQQWHSLLADTANRPKPMVDPSCITPIQLAPMKTIVRGNKPCKETSINGLLEDFDNISVTRSNSLRKESPPTPDQGASSHGPGHAEENGFITFSQYSSESDTTADYTTEKYREKSLYGDDLDPYYRGSHAAKQNGHVMKMKHGEAYYSEVKPLKSDFARFSADYHSHLDSLSKPSEYSDLKWEYQRASSSSPLDYSFQFTPSRTAGTSGCSKESLAYSESEWGPSLDDYDRRPKSSYLNQTSPQPTMRQRSRSGSGLQEPMMPFGASAFKTHPQGHSYNSYTYPRLSEPTMCIPKVDYDRAQMVLSPPLSGSDTYPRGPAKLPQSQSKSGYSSSSHQYPSGYHKATLYHHPSLQSSSQYISTASYLSSLSLSSSTYPPPSWGSSSDQQPSRVSHEQFRAALQLVVSPGDPREYLANFIKIGEGSTGIVCIATEKHTGKQVAVKKMDLRKQQRRELLFNEVVIMRDYHHDNVVDMYSSYLVGDELWVVMEFLEGGALTDIVTHTRMNEEQIATVCLSVLRALSYLHNQGVIHRDIKSDSILLTSDGRIKLSDFGFCAQVSKEVPKRKSLVGTPYWMAPEVISRLPYGTEVDIWSLGIMVIEMIDGEPPYFNEPPLQAMRRIRDSLPPRVKDLHKVSSVLRGFLDLMLVREPSQRATAQELLGHPFLKLAGPPSCIVPLMRQYRHH
partner: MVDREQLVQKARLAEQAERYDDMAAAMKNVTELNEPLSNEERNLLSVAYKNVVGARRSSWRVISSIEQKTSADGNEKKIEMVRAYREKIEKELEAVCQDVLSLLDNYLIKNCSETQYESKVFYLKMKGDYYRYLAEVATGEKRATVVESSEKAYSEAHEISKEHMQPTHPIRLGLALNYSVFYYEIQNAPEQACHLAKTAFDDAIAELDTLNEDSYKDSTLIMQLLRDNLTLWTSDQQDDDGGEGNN
B3: 14-3-3 protein sigma (Homo sapiens), P31947 (parent)
chain: B1 chain
partner: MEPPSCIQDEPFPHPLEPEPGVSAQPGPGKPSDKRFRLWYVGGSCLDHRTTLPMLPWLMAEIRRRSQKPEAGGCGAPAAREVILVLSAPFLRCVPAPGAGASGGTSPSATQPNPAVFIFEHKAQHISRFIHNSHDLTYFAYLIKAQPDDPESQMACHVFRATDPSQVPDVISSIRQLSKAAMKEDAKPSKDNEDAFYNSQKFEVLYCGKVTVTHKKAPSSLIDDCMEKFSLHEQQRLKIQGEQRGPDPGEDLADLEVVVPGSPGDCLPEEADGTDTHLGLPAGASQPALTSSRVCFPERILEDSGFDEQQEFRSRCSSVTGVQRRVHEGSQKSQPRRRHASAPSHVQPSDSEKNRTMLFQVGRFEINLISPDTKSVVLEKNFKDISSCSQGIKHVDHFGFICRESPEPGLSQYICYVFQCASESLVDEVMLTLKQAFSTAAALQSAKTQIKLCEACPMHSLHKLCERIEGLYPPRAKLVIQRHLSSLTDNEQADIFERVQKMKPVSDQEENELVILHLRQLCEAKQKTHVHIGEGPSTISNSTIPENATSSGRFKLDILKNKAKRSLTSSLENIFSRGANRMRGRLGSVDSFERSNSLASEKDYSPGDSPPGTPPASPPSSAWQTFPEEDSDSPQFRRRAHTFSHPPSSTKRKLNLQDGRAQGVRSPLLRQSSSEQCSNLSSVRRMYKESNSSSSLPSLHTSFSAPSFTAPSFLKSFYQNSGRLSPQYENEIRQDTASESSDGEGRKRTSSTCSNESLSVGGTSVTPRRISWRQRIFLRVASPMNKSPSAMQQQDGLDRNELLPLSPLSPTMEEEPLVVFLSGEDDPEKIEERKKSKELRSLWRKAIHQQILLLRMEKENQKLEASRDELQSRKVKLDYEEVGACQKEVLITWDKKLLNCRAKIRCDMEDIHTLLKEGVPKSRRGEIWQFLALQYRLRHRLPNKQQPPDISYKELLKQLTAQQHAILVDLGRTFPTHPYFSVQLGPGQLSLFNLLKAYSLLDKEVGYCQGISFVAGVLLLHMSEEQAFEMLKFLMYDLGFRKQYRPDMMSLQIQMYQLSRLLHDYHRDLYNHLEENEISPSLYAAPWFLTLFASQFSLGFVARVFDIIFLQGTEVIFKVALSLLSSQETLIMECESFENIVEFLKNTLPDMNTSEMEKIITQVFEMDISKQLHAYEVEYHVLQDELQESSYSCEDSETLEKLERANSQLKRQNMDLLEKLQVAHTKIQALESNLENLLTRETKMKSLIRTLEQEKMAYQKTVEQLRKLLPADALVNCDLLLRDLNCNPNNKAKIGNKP
B4: 14-3-3 protein sigma (Homo sapiens), P31947 (parent)
chain: B1 chain
partner: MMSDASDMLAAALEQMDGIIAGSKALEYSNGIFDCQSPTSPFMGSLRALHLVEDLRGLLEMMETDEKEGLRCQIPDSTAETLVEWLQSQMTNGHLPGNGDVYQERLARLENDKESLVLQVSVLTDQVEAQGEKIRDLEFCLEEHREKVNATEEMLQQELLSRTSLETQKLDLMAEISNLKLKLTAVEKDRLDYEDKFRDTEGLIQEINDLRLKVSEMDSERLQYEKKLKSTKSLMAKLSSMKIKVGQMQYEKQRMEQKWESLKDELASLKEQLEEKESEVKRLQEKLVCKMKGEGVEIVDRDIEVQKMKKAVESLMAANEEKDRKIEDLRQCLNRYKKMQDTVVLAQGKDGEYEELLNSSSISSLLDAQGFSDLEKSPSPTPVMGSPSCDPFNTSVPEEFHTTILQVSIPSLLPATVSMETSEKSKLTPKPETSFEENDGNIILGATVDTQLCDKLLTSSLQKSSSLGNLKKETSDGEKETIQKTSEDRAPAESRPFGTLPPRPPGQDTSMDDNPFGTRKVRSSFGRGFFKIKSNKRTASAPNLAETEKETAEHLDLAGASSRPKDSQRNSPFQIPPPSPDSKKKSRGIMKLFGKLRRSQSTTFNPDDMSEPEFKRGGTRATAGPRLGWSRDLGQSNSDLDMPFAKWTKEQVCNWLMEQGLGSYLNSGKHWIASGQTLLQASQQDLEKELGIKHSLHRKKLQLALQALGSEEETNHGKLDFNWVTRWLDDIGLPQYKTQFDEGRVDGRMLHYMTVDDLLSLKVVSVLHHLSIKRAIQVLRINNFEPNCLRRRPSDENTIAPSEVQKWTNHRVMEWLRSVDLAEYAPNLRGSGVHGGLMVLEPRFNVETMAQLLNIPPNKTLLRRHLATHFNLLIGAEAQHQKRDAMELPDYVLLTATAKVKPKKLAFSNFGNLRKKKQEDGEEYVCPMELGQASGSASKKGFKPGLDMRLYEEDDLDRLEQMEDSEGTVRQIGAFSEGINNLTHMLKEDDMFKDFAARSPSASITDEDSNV
B5: 14-3-3 protein sigma (Homo sapiens), P31947 (parent)
chain: B1 chain
partner: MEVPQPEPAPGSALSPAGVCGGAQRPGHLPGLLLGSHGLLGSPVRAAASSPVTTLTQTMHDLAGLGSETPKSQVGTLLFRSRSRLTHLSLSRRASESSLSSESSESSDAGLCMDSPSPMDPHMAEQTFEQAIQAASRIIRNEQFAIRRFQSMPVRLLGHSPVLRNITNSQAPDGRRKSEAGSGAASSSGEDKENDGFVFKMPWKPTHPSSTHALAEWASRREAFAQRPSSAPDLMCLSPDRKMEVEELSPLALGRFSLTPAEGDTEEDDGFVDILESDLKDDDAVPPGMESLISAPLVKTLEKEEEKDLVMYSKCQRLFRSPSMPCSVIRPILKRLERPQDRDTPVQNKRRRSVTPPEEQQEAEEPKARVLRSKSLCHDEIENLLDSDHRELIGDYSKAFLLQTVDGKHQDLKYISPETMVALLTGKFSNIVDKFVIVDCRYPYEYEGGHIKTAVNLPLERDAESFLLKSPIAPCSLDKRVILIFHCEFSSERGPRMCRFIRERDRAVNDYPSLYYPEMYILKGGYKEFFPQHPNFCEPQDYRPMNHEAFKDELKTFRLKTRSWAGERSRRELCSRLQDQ

Variants of: B1
Conditions: with grb10_human GRB10, Q13322

effect of a mutation on the interaction | Variant
decreasing interaction strength | K49E;R56E;V178D

Variants of: B2
Conditions: with 1433g_human YWHAG

effect of a mutation on the interaction | Variant
decreasing interaction strength | S99A;S270A;S290A;T317A;T349A

Variants of: B3
Conditions: with tbcd4_human TBC1D4, O60343

effect of a mutation on the interaction | Variant
decreasing interaction strength | K49E;R56E;V178D

Variants of: B4
Conditions: with lipb1_human PPFIBP1, Q86W92

effect of a mutation on the interaction | Variant
decreasing interaction strength | K49E;R56E;V178D

Variants of: B5
Conditions: with mpip2_human CDC25B

effect of a mutation on the interaction | Variant
decreasing interaction strength | K49E;R56E;V178D
